Test results taken from US10975142B2, “Endotrophin neutralization and use thereof” (THE BOARD OF REGENTS OF THE UNIVERSITY OF TEXAS SYSTEM, priority 2013, dated 2021).

T1: ETP (Mus musculus, UniProt E9PWQ3)
T1 sequence (E9PWQ3 with tags, fused parts or gaps limits assumed): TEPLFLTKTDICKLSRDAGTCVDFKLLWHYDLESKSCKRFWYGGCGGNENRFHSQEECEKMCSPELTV


Columns and labels:
[1] = tested on: 4T1; assay: 4T1 xenograft in nude mice, cisplatin with 10B6 or IgG; assay type: in vivo; conditions: 28-days; cisplatin 1 mg/kg every 5 days, 10B6 100 μg/mouse once a week
Protocol: FIGS. 22A-22E. Neutralizing endotrophin activities with monoclonal antibodies sensitizes tumors to cisplatin treatment. FIG. 22A. Pieces of tumors from PyMT mice were implanted into wild-type hosts. Tumor-bearing mice were given cisplatin (1 mg/kg, ip., every 5 days) or PBS, combined with either TZD (20 mg/kg) or anti-endotrophin monoclonal antibodies (100 μg/mouse, once a week) for tumor progression. Tumor volumes were determined by caliper measurements. Data represent mean±SD (n=5/group). *p<0.05, **p<0.01, ***p<0.001 vs. Cisplatin by 2-way ANOVA. FIGS. 22B-22D. 4T1 (0.5×10^6/mouse) cells were xenografted in nude mice and monitored tumor growth (FIG. 22B) and metastasis (FIG. 22C). […] Tumor volumes were determined by caliper measurements. […] Metastatic burden was determined by measuring metastatic lesion area in lung tissues with H&E stains. Quantified data represent mean±SD (n=5/group). **p=0.0007 and *p=0.0209 vs. CIS/10B6 by unpaired student t-test. mRNA levels for EMT markers such as vimentin, snail, slug, twist1, twist2 and S100S4 were determined by RT-qPCR (FIG. 22D). […]
As a last step, therapeutic potential of a previously described endotrophin neutralizing antibody (clone 10B6) on cisplatin sensitivity was determined. […] Tumor regression was monitored for 2-months post implantation. […]

[2] = molecular target: T1, ETP; assay: in vivo Matrigel bioassay (stromal cell recruitment into plugs); conditions: ETP 100 ng/plug, antibody 20 μg/plug, 2 days after implantation
Protocol: FIGS. 7A-7I: ETP acts as a chemokine augmenting tumor growth. […] Tumor volume was determined 1 month after implantation (representative images). Data represent mean±SEM (n=5 per group). ***P<0.001, unpaired t test. (FIG. 7B) In vivo Matrigel bioassay. Matrigel (50 μl) was mixed with ETP (100 ng/plug) or PBS and implanted into WT mice in the presence of IgG, 1D11, or 10B6 (20 μg/plug). 2 days after implantation, plugs were excised and stained for FIG. 7H & FIG. 7E. Scale bars: 100 μm. (FIGS. 7C-7H) Cancer cells were plated in the bottom chamber 1 day prior to seeding MS-1 cells (5×10^5 cells/well) and macrophages (1×10^5 cells/well) atop the membrane chamber in Transwell and incubated for 18-24 hours (FIG. 7C). (FIGS. 7D, 7E, 7F, 7G) Representative images of multiple independent experiments. Scale bars: 100 μm. (FIG. 7H) Quantitation (mean±SEM; n=3 per group). ***P<0.001, […], unpaired t test. (FIG. 7I) MS-1 migration assay. MS-1 cells (5×10^5 cells/well) were plated atop the chamber in Transwell and incubated for 24 hours. Chemotaxis was set up by following cell migration from DMEM/serum-free to DMEM/2% FBS/PBS or DMEM/2% FBS/ETP protein (1 μg/well). Images are representative of multiple independent experiments. Data represent mean±SEM (n=3 per group). ***P=0.008, unpaired t test. Scale bars: 100 μm.

chemokine activity of ETP (stromal cell recruitment into Matrigel plugs) [2] | Molecule | primary tumor growth of 4T1 [1]
– | N.N.[Cl][Pt][Cl] [cisplatin, cis-diammine-dichloro-platinum] | barely inhibited
completely blocked | 10B6: rat anti-mouse endotrophin monoclonal antibody; light chain variable SEQ ID NO: 2, heavy chain variable SEQ ID NO: 4 (antibody, V domains shown) VH: QVQLQQSGPELAKPGSSVKISCKASGYTFTSYEMHWIKQRPGQGLEWIGYIYPESGSTGYNEKFKGKATLTVDKSSPTAYMQLSSLTPDNSAVYFCTRGLRVLGYVMDVWGHGTSVTVSS VL: DVQLTQSPSFLSASVGDRVTINCKASQNINKYLNWYQQKLGEAPKRLIYNTNNLQTGIPSRFSGSASGTDYTLTISSLHPEDFATYFCLQHSSLYTFGAGTKLELK | barely inhibited
